Measured values taken from the supplement of paper PMC9170038.

How the values were obtained:
MS2 coat protein [1] = test: apparent KD of MS2 coat protein, switch OFF state (with FMN for OFF switches, without FMN for ON switches); designed switch direction (-1 OFF switch, 1 ON switch): -1; higher = weaker reporter binding; details: FMN input: 0 or 200 uM; Eterna round: R93 (includes R88 designs)
In short: (§1)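 Apparent KD was obtained for each design as the median of normalised binding-curve fits over its clusters. RNA switches transcribed on-chip from Illumina sequencing clusters were titrated with SNAP-549-labelled MS2 coat protein (twofold steps, 0.7 or 1.5 nM to 3 µM) in 100 mM Tris-HCl pH 7.5, 80 mM KCl, 4 mM MgCl2, without or with constant ligand.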

MS2 coat protein [2] = test: apparent KD of MS2 coat protein, switch ON state; designed switch direction (-1 OFF switch, 1 ON switch): -1; higher = weaker reporter binding; details: FMN input: 0 or 200 uM; Eterna round: R93 (includes R88 designs)
In short: as §1

## AGUCGGCGAGGAUAUACAUGAGGAUCACCCAUGUGAGAGAAAAAAGUGAGCAAGAAAUGUAGAAGGCGCUGACA [JL Lego Mod 3]
MS2 coat protein [1]
  apparent KD of MS2 coat protein: 0.0619 µM
MS2 coat protein [2]
  apparent KD of MS2 coat protein: 0.156 µM

## UUAAUAGUAGGAUAUACAUGAGGAUCACCCAUGUAGCAACUACACAAAGGAACCUGAUGUAGAAGGACUUCCAG [Attionuson]
MS2 coat protein [1]
  apparent KD of MS2 coat protein: 0.0136 µM
MS2 coat protein [2]
  apparent KD of MS2 coat protein: 0.0124 µM

## AAAACUGGAGGAUAUACAUGAGGAUCACCCAUGUGUGGGUAUACUGUGUCGGCGUCAGGUAGAAGGCCAAAAAA [Gilly Gone Silly 29 - Jieux - Exclusion 3]
MS2 coat protein [1]
  apparent KD of MS2 coat protein: 0.151 µM
MS2 coat protein [2]
  apparent KD of MS2 coat protein: 0.146 µM

## AAAAAACAUGAGGAUCACCCAUGUGAGGAUAUGCAAAACCCAUAUAAAAAGGGAAAAAGCAGAAGGCGCAAAAA [Starry Exclusion 1.4 (wbt round 1 mod)]
MS2 coat protein [1]
  apparent KD of MS2 coat protein: 0.0242 µM
MS2 coat protein [2]
  apparent KD of MS2 coat protein: 0.0265 µM

## AGGUUGUCAGGAUAUGCGUGAAGAAUAAAACAAAUAACAACGCAGAAGGGACAUGAGGAUCACCCAUGUUAAGA [May 47]
MS2 coat protein [1]
  apparent KD of MS2 coat protein: 0.0483 µM
MS2 coat protein [2]
  apparent KD of MS2 coat protein: 0.0398 µM

## GCAAAGUGAGGAUAUACGCGAACAAAAAAAAAAAAGAAAGCGUAGAAGGCACAUGAGGAUCACCCAUGUCCAGC [Alfred 64% 2]
MS2 coat protein [1]
  apparent KD of MS2 coat protein: 0.0251 µM
MS2 coat protein [2]
  apparent KD of MS2 coat protein: 0.0235 µM

## AGCUAGUCAGGAUAUACGAAAAUGUCAGAGGCAGUAAGGGAACAUGAGGAUCACCCAUGUAGAAGGGACUAGCA [Diamond 40]
MS2 coat protein [1]
  apparent KD of MS2 coat protein: 0.0877 µM
MS2 coat protein [2]
  apparent KD of MS2 coat protein: 0.0361 µM

## AAAAAACAUGAGGAUCACCCAUGUAAGGAUAUGCUCAAGCGAAAAAGCACAAAAAAGAGCAGAAGGUACAAAAA [66%, Wbt, 41]
MS2 coat protein [1]
  apparent KD of MS2 coat protein: 0.031 µM
MS2 coat protein [2]
  apparent KD of MS2 coat protein: 0.0226 µM

## CUCUUGUGAGGAUAUGCAAGAAAAGAAAAGAAAGAAAAGAAGCAGAAGGCACAUGAGGAUCACCCAUGUAAGAA [EteRNA is fun!]
MS2 coat protein [1]
  apparent KD of MS2 coat protein: 0.0259 µM
MS2 coat protein [2]
  apparent KD of MS2 coat protein: 0.0533 µM

## AAAAAGUGAGGAUAUGAAAAUAAAAAAAACAAACAAAUAAAUCAGAAGGCACAUGAGGAUCACCCAUGUAAAAA [JR_Exc004_Sub1202]
MS2 coat protein [1]
  apparent KD of MS2 coat protein: 0.0262 µM
MS2 coat protein [2]
  apparent KD of MS2 coat protein: 0.0368 µM

## CUCUUGUAAGGAUAUGACUACAUAAAAAAAAAAAAAUGUAGUCAGAAGGUACAUGAGGAUCACCCAUGUACUAA [Brourd - Exclusion 4 - Sub 2]
MS2 coat protein [1]
  apparent KD of MS2 coat protein: 0.0262 µM
MS2 coat protein [2]
  apparent KD of MS2 coat protein: 0.0208 µM

## AAGACUACAGGAUAUACAUGAGGAUCACCCAUGUAACUGACAAGUAGAUGACGGAGAAGUAGAAGGGUAGUCAA [Ruby 36]
MS2 coat protein [1]
  apparent KD of MS2 coat protein: 0.0318 µM
MS2 coat protein [2]
  apparent KD of MS2 coat protein: 0.0185 µM

## AAGAACUCAGGAUAUACAUGAAAGAAAGAAAAGAAAAGAAAACAUGAGGAUCACCCAUGUAGAAGGGAGAAGAA [EteRNA is fun!]
MS2 coat protein [1]
  apparent KD of MS2 coat protein: 0.0306 µM
MS2 coat protein [2]
  apparent KD of MS2 coat protein: 0.0397 µM

## AAAAGGUGAGGAUAUAUGAAAAAAAAAAAAAAAAAAAAAAAAUAGAAGGCACAUGAGGAUCACCCAUGUAAAAA [LROPPY Exclusion 4 - v04_ on a whim]
MS2 coat protein [1]
  apparent KD of MS2 coat protein: 0.0272 µM
MS2 coat protein [2]
  apparent KD of MS2 coat protein: 0.0369 µM

## AGCUAGCAAGGAUAUGCGAACAUGUCAAAAGACGUGAAGGGACAUGAGGAUCACCCAUGUAGAAGGUGCUAGCA [JL 74% mod 9]
MS2 coat protein [1]
  apparent KD of MS2 coat protein: 0.0276 µM
MS2 coat protein [2]
  apparent KD of MS2 coat protein: 0.0357 µM

## AAGAACCAAGGAUAUACAAAAUAAAAGAAAAGAAAGAAAGAACAUGAGGAUCACCCAUGUAGAAGGUGGAAGAA [Khaankhre Sobekhotep]
MS2 coat protein [1]
  apparent KD of MS2 coat protein: 0.0416 µM
MS2 coat protein [2]
  apparent KD of MS2 coat protein: 0.0477 µM

## AGUUGGCGAGGAUAUACAUGAGGAUCACCCAUGUGAGAGAAAUAAGUGAGAAAGAAAAGUAGAAGGCGCUCACA [JL Lego Mod 17]
MS2 coat protein [1]
  apparent KD of MS2 coat protein: 0.0474 µM
MS2 coat protein [2]
  apparent KD of MS2 coat protein: 0.068 µM

## AAAACUGGAGGAUAUACAUGAGGAUCACCCAUGUGUGGAUGAGCUGUGUCGGCGUCAGGUAGAAGGCCACAAAA [Gilly Gone Silly 35 - Jieux - Exclusion 3]
MS2 coat protein [1]
  apparent KD of MS2 coat protein: 0.0431 µM
MS2 coat protein [2]
  apparent KD of MS2 coat protein: 0.0363 µM

## AAAAAGCGAGGAUAUACAUGAGGAUCACCCAUGUCAAACGGUAAGACCGCAGGAAACAGUAGAAGGCGCAAAAA [Exclusion3-03]
MS2 coat protein [1]
  apparent KD of MS2 coat protein: 0.0911 µM
MS2 coat protein [2]
  apparent KD of MS2 coat protein: 0.0583 µM

## AAAAAACAUGAGGAUCACCCAUGUGAGGAUAUGCAAAACUUAUAUAAAAAGGGAAAAAGUAGAAGGCACAAAAA [LROPPY Exclusion 1 - v09_water mod]
MS2 coat protein [1]
  apparent KD of MS2 coat protein: 0.0392 µM
MS2 coat protein [2]
  apparent KD of MS2 coat protein: 0.0304 µM

## AAAAAGGCAGGAUAUACGAGUCAAAGAAAAGACAAAAGGAAACAUGAGGAUCACCCAUGUAGAAGGGCCAAAAA [Fiskers exclusion D2 62% 6]
MS2 coat protein [1]
  apparent KD of MS2 coat protein: 0.0167 µM
MS2 coat protein [2]
  apparent KD of MS2 coat protein: 0.0282 µM

## AAGAACGAAGGAUAUACAUGAGGAUCACCCAUGUAAAAGAAAGAAAGGGAAAAGAAAAGUAGAAGGUCGAAGAA [Sekhemkheperre Osorkon I]
MS2 coat protein [1]
  apparent KD of MS2 coat protein: 0.0312 µM
MS2 coat protein [2]
  apparent KD of MS2 coat protein: 0.0283 µM

## AAAAAACAUGAGGAUCACCCAUGUGAGGAUAUGGAAAAAUAAGGACAGUAAAGAUAAACCAGAAGGCACAAAUA [JR_Exc001_Sub1101]
MS2 coat protein [1]
  apparent KD of MS2 coat protein: 0.0241 µM
MS2 coat protein [2]
  apparent KD of MS2 coat protein: 0.0264 µM

## AGGAAACAUGAGGAUCACCCAUGUCAGGAUAUUGAAAAGAAAAGAAAAGAAAGAAGAACAAGAAGGGACAAGAA [Mekh]
MS2 coat protein [1]
  apparent KD of MS2 coat protein: 0.0206 µM
MS2 coat protein [2]
  apparent KD of MS2 coat protein: 0.0272 µM

## AAAAAACAUGAGGAUCACCCAUGUCAGGAUAUGCUCAGCAAAAAAAAAAAAAAGAACGGUAGAAGGGACAGAAA [Bilbo Confounded 22 - Jieux - Exclusion 1]
MS2 coat protein [1]
  apparent KD of MS2 coat protein: 0.0507 µM
MS2 coat protein [2]
  apparent KD of MS2 coat protein: 0.0561 µM

## AAAAAGUCAGGAUAUACAGAUAAAAAAACGAAAAAAAAUCUGUAGAAGGGACAUGAGGAUCACCCAUGUAAAAA [Ex 4 May 1]
MS2 coat protein [1]
  apparent KD of MS2 coat protein: 0.0401 µM
MS2 coat protein [2]
  apparent KD of MS2 coat protein: 0.0618 µM

## AACUGGUGAGGAUAUCUGGAUAGGAAAAAGAAAACCUAUCCAGAGAAGGCACAUGAGGAUCACCCAUGUAAAAA [JL cataway mod 9]
MS2 coat protein [1]
  apparent KD of MS2 coat protein: 0.0519 µM
MS2 coat protein [2]
  apparent KD of MS2 coat protein: 0.056 µM

## AAAAAACAUGAGGAUCACCCAUGUGAGGAUAUGCGAAAAAAAAAAUAAAAAAAAAAAAGUAGAAGGCACACCAA [Mat - Exclusion 1 - Eli mod - D55]
MS2 coat protein [1]
  apparent KD of MS2 coat protein: 0.0441 µM
MS2 coat protein [2]
  apparent KD of MS2 coat protein: 0.0419 µM

## AGUCGGCGAGGAUAUACAUGAGGAUCACCCAUGUGAGAGAAAAAGGUGAGUCAGAAAAGUAGAAGGCGCUGACA [JL Lego Mod 5]
MS2 coat protein [1]
  apparent KD of MS2 coat protein: 0.0474 µM
MS2 coat protein [2]
  apparent KD of MS2 coat protein: 0.166 µM

## AAGUCGUUAGGAUAUAUAUGGAUAUACAUUUAUGUAGAACUACAUGAGGAUCACCCAUGUAGAAGGAACGAAUA [AJ 56]
MS2 coat protein [1]
  apparent KD of MS2 coat protein: 0.0279 µM
MS2 coat protein [2]
  apparent KD of MS2 coat protein: 0.0243 µM

## AAGAAUGGAGGAUAUACAAGAAAGAAAGAAAAGAAAAGAAAACAUGAGGAUCACCCAUGUAGAAGGCCAUAGAA [EteRNA is fun!]
MS2 coat protein [1]
  apparent KD of MS2 coat protein: 0.0138 µM
MS2 coat protein [2]
  apparent KD of MS2 coat protein: 0.0249 µM

## AAAGGACGAGGAUAUACAUGAGGAUCACCCAUGUAAAAAACGUAAUAAAAUAACUUAUGUAGAAGGCGUCCAAA [Mat - Exclusion 3 - Eli mod - D98]
MS2 coat protein [1]
  apparent KD of MS2 coat protein: 0.213 µM
MS2 coat protein [2]
  apparent KD of MS2 coat protein: 0.0263 µM

## AAGAAGUGAGGAUAUCGAAGACUGUCGAAAAGACAGUCGAACGAGAAGGCACAUGAGGAUCACCCAUGUGGGAA [Marsurpial 65% 6]
MS2 coat protein [1]
  apparent KD of MS2 coat protein: 0.171 µM
MS2 coat protein [2]
  apparent KD of MS2 coat protein: 0.0771 µM

## AAGAACGGAGGAUAUACAUGAGGAUCACCCAUGUAAAAGAAAGAAGGGAAAGAGAAAAGUAGAAGGCCGAAGAA [Usermaatre-setepenamun Pedubast]
MS2 coat protein [1]
  apparent KD of MS2 coat protein: 0.0508 µM
MS2 coat protein [2]
  apparent KD of MS2 coat protein: 0.0281 µM
